B1: mSHARPIN_(163–301) [mouse] / GST-mHOIP_(466–630) [mouse] (parent)
chain 1: SSGNFKKEELATRLSQAIAGGDEKAAAQVAAVLAQHHVALNVQLMEAWFPPGPIRLQVTVEDATSVLSSSSSAHVSLKIHPHCSIAALQDQVFSEFGFPPAVQRWVIGRCLCMPERSLASYGVSQDGDPAFLYLLSAPR
chain 2: SCGDPEKQRQDKMRKEGLQLVSMIQEGETAGASPEEVFSALQYSGTEVPLQWLRSELSYVLEMVAELAGQQDPELGAFSCQEARKAWLDRHGNLDEAVEECVRARRRKVHELQSLGFGPKEGSLQALFQHGGDVARALTELQRQRLEPFHQRLWDRDPEPTPCWD

Variants of: B1
Assay: SPR
Conditions: with GST-mHOIP_(466–630) [mouse]; response read at end of injection (about 185 s); GST-mHOIP D-UBA WT immobilized with anti-GST antibody; parent: 20; read off a plot

response	Variant
-20 RU	chain 1 SSGNFKKEELATRASQAAAGGDEKAAAQVAAVLAQHHVALNVQLMEAWFPPGPIRLQVTVEDATSVLSSSSSAHVSLKIHPHCSIAALQDQVFSEFGFPPAVQRWVIGRCLCMPERSLASYGVSQDGDPAFLYLLSAPR [chain 1 L14A I18A]

From publication PMC6044281, “Cooperative Domain Formation by Homologous Motifs in HOIL-1L and SHARPIN Plays A Crucial Role in LUBAC Stabilization” (Cell reports, 2018)
